Substrate: N[C@@H](Cc1c[nH]cn1)C(=O)O
Assay: Km of HDC for its substrate histidine
Type: biochemical, human
Details: other: 54 Kd form, data not shown

B1: HDC (54 Kd form) (Homo sapiens; S148Q) (protein)
chain: MMEPEEYRERGREMVDYICQYLSTVRERRVTPDVQPGYLRAQLPESAPEDPDSWDSIFGDIERIIMPGVVHWQSPHMHAYYPALTSWPSLLGDMLADAINCLGFTWASSPACTELEMNVMDWLAKMLGLPEHFLHHHPSSQGGGVLQQTVSESTLIALLAARKNKILEMKTSEPDADESCLNARLVAYASDQAHSSVEKAGLISLVKMKFLPVDDNFSLRGEALQKAIEEDKQRGLVPVFVCATLGTTGVCAFDCLSELGPICAREGLWLHIDAAYAGTAFLCPEFRGFLKGIEYADSFTFNPSKWMMVHFDCTGFWVKDKYKLQQTFSVNPIYLRHANSGVATDFMHWQIPLSRRFRSVKLWFVIRSFGVKNLQAHVRHGTEMAKYFESLVRNDPSFEIPAKRHLGLVVFRLKGPNCLTENVLKEIAKAGRLFLIPATIQDKLIIRFTVTSQFTTRDDILRDWNLIRDAATLILSQ
**Q.** Which Km does the source give for B1 here?
**A.** 275 µM

— US7608407B2, “Fluorescence polarization assay for determining histidine decarboxylase activity” (Boehringer Ingelheim Pharmaceuticals, Inc., priority 2004, dated 2009)
